Data reported in paper PMC8887749, “The interaction of dengue virus capsid protein with negatively charged interfaces drives the in vitro assembly of nucleocapsid-like particles”.

Key:
[1] = target: Dengue virus capsid (C) protein, recombinant DENVC (dengue virus serotype 2) (UniProt P29990); assay: SAXS
[2] = target: DENV capsid protein (DENVC) (Dengue virus serotype 2, UniProt P29990 1-100); assay: fluorescence anisotropy; FITC-DENVC 50 nM; 1:1 DENVC:oligo stoichiometry; affinity stated only as nanomolar range; 55 mM NaH2PO4, 200 mM NaCl, 5 mM EDTA, pH 7.4, 25 C; conditions: protein: recombinant; chain copies: 2; single strand
DENV capsid protein (DENVC), sequence (P29990 1-100): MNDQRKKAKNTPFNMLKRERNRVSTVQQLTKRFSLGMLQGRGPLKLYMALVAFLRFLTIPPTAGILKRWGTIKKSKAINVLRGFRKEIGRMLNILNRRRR

Dengue virus capsid (C) protein, recombinant DENVC, sequence (P29990 1-100): as above

Molecule | stoichiometry N [1] | binding result [2]
Dengue virus capsid (C) protein, recombinant DENVC (from UniProt P29990 1-100) (natural protein) | 2 | –
GGGGG (ssDNA) [5-mer ssDNA] | – | binds
TCCATGGTAGACAGAGGATGGGGGA (ssDNA) [25-mer ssDNA] | – | binds
